Data: patent US20220162322A1 (CAPELLA BIOSCIENCE, published 2022)

Legend:
[1] = molecular target: the molecule itself; assay: High-Mass MALDI mass spectrometry with chemical cross-linking
Description: For the characterization of BDCA2(CLEC4C)/3E5 (variant 12) complexes, the measurements were performed using an Autoflex II MALDI ToF ToF mass spectrometer (Bruker) equipped with a CovalX HM4 interaction module. The CovalX interaction module contains a detecting system designed to optimize detection up to 2 MDa with nano-molar sensitivity. […] In order to characterize CLEC4C we submitted the sample to trypsin, chymotrypsin, Asp-N, elastase and thermolysin proteolysis followed by nLC-LTQ-Orbitrap MS/MS analysis. For the characterization, a nLC Ultimate 3000-RSLC system in line with a LTQ-Orbitrap mass spectrometer (Thermo Scientific) was used. Sample preparation was as follows:
In order to determine the epitope of CLEC4C/3E5 complex with high resolution, the protein complexes were incubated with deuterated cross-linkers and subjected to multi-enzymatic cleavage. After enrichment of the crosslinked peptides, the samples were analyzed by high resolution mass spectrometry (nLC-LTQ-Orbitrap MS) and the data generated were analyzed using XQuest and Stavrox software.

[2] = molecular target: T1, BDCA-2 (CLEC4C, CD303) on human plasmacytoid dendritic cells (purified pDC or pDC within PBMC) (human, UniProt Q8WTT0 1-213); assay: cell-based or functional assay
T1 sequence: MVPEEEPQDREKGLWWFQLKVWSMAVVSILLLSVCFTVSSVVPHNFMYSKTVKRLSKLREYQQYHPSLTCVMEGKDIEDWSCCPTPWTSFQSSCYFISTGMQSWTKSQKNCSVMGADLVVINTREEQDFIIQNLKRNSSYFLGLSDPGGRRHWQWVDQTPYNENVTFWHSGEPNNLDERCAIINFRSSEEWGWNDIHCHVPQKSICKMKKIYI

[3] = molecular target: T1, BDCA-2 (CLEC4C, CD303) on human …; assay: cell-based or functional assay; remark: listed apart in the source
[4] = molecular target: T2, human BDCA-2-Fc (hIgG1-Fc-hBDCA-2) (human); assay: SPR (BIAcore), comparison of KD
T2 construct: also called huBDCA2-Fc

[5] = molecular target: T2, human BDCA-2-Fc (hIgG1-Fc-hBDCA-2); assay: ELISA on plate-coated human BDCA2-Fc
Description: 100 ul per well of 0.5 μg/ml of human BDCA2-Fc in PBS pH 7.4 was incubated overnight at 4 C. The wells were then washed 3 times with PBST (PBS+0.05% Tween 20) and then blocked with 250 ul 4% Skimmed Milk (Marvel, cat. no. 3023033 Lot no. 7169) in PBS for 120 min at RT. The wells were washed and then incubated with 100 ul per well of humanized mAbs at 3 fold dilutions (from 1 μg/ml to 0.001 μg/ml) in 1% Skimmed Milk PBS buffer at pH 7.4. After 60 min at RT the wells were washed 3 times in PBST and 100 ul of mouse anti-human IgG (anti-CH1-HRP; 1:1000, BD Pharmigen cat. no. 555788) or donkey anti-mouse IgG (anti-mouse IgG-HRP) at 1:5000 dilution (Jackson ImmunoResearch, Cat. no. 715-035-150) in 1% Skimmed Milk PBS was added. Development was with TMB (ThermoFisher, cat. no. 00-4201-56), 100 ul/well and the reaction stopped with 100 μl/well H2SO4 (cat. nr. J/8430/15, lot nr.) and the absorbance read at 450 nm. The EC50 was calculated using Graphpad Prism software. A negative (1% Skimmed Milk/PBS) and positive control (anti-BDCA-2, AC144, Miltenyi Biotec, cat. no. 130-090-690) were utilised in the assay.

[6] = molecular target: T2, human BDCA-2-Fc (hIgG1-Fc-hBDCA-2); assay: SPR (BIAcore T200), huBDCA2-Fc immobilised on CM5 chip, mAb injected
Description: A BIAcore T200 was used with BIAcore run buffer (HBS-EP) at pH7.4. 692RU of huBDCA2-Fc was immobilized to a CM5 chip (CFJB156) utilising 5 μg/ml of huBDCA2-Fc with the BIAcore EDC/NHS kit according to the manufacturer's instructions. Two-fold dilutions of the humanized mAbs were injected starting at 200 nM down to 3.1 nM with a contact time of 60 s at a flow of 30 or 60 ul/min at 25° C. followed by an off-rate wash for 5 minutes with BIAcore buffer. […] The BIAcore T200 software was used to calculate Ka (1/Ms), Kd (1/s) and the KD (nM).

[7] = molecular target: T3, human BDCA-2 (CLEC4C) expressed on transfected U937 cells (human, UniProt Q8WTT0 1-213); assay: flow cytometry (MFI titration) on cells expressing human BDCA-2
T3 construct: also called cell expressed human BDCA-2; Q8WTT0
T3 sequence: T1 sequence
Description: (§1) Cells expressing human and cynomolgus BDCA-2 were resuspend at 2×10⁶ cells/mi in FACS buffer (2% FBS/PBS) and 50 μl of the cell suspension was added per well, in a 96-well V bottom plate. The plate was centrifuge and the supernatant discarded. 12 serial, 2-fold dilutions of mAbs, starting at 50 μg/ml (range 50-0.024 μg/ml), in FACS buffer were prepared and 25 μl of the mAb dilutions added to wells, in triplicate. The plate was then incubated for 60 min at room temperature then centrifuged and washed 3× with 150 μl FACS buffer. To each well was then added 25 μl goat-anti-human PE conjugate (or goat-anti-mouse in the case of AC144), diluted 1:200 in FACS buffer. The plates were incubated for 60 min at room temperature protected from light and centrifuged and washed 3× with 150 μl FACS buffer. 25 μl per well of 2% PFA 2% was added and incubated for 20 min at 4° C., protected from light and analysed on the iQue screener.
(§2) Serial dilutions of the 4 chimeric mAbs (50-0.25 ug/ml) were prepared and incubated with cells expressing human and cynomolgus BDCA-2. After staining, the median fluorescence intensity (MFI) of the cells was measured and the data points of the dilution series were fitted on a sigmoidal curve after normalization to determine the EC50 values.

[8] = molecular target: T4, cynomolgus BDCA-2 expressed on transfected U937 cells (cynomolgus, UniProt Q8WTT0 1-213 (human entry)); assay: flow cytometry (MFI titration) on cells expressing cynomolgus BDCA-2
T4 construct: also called cell expressed cynomolgus BDCA-2
T4 chain: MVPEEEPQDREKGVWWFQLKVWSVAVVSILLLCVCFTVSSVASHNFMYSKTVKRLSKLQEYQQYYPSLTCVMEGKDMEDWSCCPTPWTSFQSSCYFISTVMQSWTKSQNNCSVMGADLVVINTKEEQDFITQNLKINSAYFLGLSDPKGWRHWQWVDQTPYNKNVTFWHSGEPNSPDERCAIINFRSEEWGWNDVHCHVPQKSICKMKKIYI
Description: as §1, §2

T2 sequence (chain, as listed by the source limits assumed): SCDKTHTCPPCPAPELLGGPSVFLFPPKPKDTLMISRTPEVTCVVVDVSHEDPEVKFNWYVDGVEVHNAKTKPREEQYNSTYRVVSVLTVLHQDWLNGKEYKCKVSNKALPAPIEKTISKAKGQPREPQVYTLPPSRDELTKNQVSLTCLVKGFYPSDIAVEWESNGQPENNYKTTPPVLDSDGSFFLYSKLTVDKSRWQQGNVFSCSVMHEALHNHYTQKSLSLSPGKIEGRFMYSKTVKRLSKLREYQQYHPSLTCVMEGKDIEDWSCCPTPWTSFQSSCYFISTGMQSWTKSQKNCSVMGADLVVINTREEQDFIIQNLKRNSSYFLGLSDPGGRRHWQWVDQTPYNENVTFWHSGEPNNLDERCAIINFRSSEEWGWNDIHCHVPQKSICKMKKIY

B1: CLEC4C (BDCA-2) protein used for cross-linking / mass spectrometry epitope mapping (receptor)
chain: NFMYSKTVKRLSKLREYQQYHPSLTCVMEGKDIEDWSCCPTPWTSFQSSCYFISTGMQSWTKSQKNCSVMGADLVVINTREEQDFIIQNLKRNSSYFLGLSDPGGRRHWQWVDQTPYNENVTFWHSGEPNNLDERCAIINFRSSEEWGWNDIHCHVPQKSICKMKKIYI
notes: also called BDCA2(CLEC4C)
Q: Does B1 bind [1]?
A: Result: no binding

B2: 3E05_var12 (antibody, human IgG1, V domains shown)
VH: EVQLVESGGGLVKPGGSLRLSCAASGFTFSSYTMSWVRQAPGKGLEWVAYISSGGGQTYYPDSVKGRFTISRDNAKNSLYLQMNSLRAEDTAVYYCARHDYYEGGLYYAMDYWGQGTLVTVSS
VL: DIVMTQSPDSLAVSLGERATINCKSSQSVDYDGDSSMNWYQQKPGQPPKLLIYAASTLESGVPSRFSGSGSGTDFTLTISSLQAEDVATYYCQQTNEDPPTFGGGTKVEIK
notes: also called 3E05 VL3VH4 (var_12); 3E05VL3VH4 (var_12)
Q: How did the “IC50, ng/ml; inhibition of IFNα from ODN stimulated healthy donor PBMC” value [2] turn out when B2 was run?
A: The value was 14.3 ng/mL.

Q: And the “IC90, ng/ml; inhibition of IFNα from ODN stimulated healthy donor PBMC” value [2]?
A: The value was 127 ng/mL.

Q: And the “IC50, nM; inhibition of IFNα from ODN stimulated healthy donor PBMC” value [3]?
A: Its value is 0.1 nM.

Q: And the “IC90, nM; inhibition of IFNα from ODN stimulated healthy donor PBMC” value [3]?
A: Its value is 0.85 nM.

Q: What about the “fold higher affinity than parental wild type 3E05 and AC144” value [4] of the same binder?
A: The value was greater than 100 fold.

Q: And the EC50 [5]?
A: Its EC50 is 0.33 nM.

Q: Does B2 bind [1]?
A: Result: no binding

Q: What about the Kd [6] of the same binder?
A: The Kd was less than 0.01 nM.

B3: chimeric mAb 3E05 (parental mouse 3E05 VH/VL on human IgG1) (antibody, V domains shown)
VH: EVKLVESGGGLVKPGGSLKLSCAASGFTFSSYTMSWVRQTPEKRLEWVAYISSGGGNTYYPDSVKGRFTISRDNARNTLYLQMSSLRSEDTAMYYCARHDYYDGGLYYAMDYWGQGTSVTVSS
VL: DIVLTQSPASLAVSLGQRATISCKASQSVDYDGDSSMNWYQQKPGQPPKLLICAASTLESGIPARFSGSGSGTDFTLNIHPVEEEDAATYYCQQTNEDPPTFGGGTKLEIK
notes: also called 3E5; Parental 3E05
Q: For B3, which EC50 [5] is on record?
A: The EC50 was 0.3 nM.

Q: What about the EC50 [7] of the same binder?
A: The EC50 was 1.76 µg/mL.

Q: And the EC50 [8]?
A: The EC50 was 2.6 µg/mL.

Q: And the Kd [6]?
A: Its Kd is 0.35 nM.
